How the values were obtained:
CCR5 (human) = CCR5 (human) (UniProt P51681); assay: cell-based or functional assay
CD4 (human) = CD4 (human) (UniProt P01730); assay: cell-based or functional assay

Substance	ATP release from primary human macrophages (luminescence assay), peak fold change against vehicle (CCR5 (human))	ATP release from primary human macrophages (luminescence assay), peak fold change against vehicle (CD4 (human))
Monomeric gp120BaL (R5-tropic)	1.8 fold	1.8 fold
Monomeric gp120SF162 (R5-tropic)	1.8 fold	1.8 fold
